Measured values reported in the supplement of paper PMC10567573.

B1: CAMK2A (parent)
chain: CIQQILEAVLHCHQMGVVHRDLKP

Variants of: B1
Test: protein stability index of a GFP-peptide fusion (GPS, HEK-293T) (PSI 1-6); higher = more stable
Details: c terminus: a fixed tail appended
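Note: lentivirally expressed fusions sorted by FACS into six bins by GFP to DsRed ratio, PSI derived from sequencing read proportions per bin multiplied by bin number.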

| Variant | protein stability index |
| --- | --- |
| CKQQILEAVLHCHQMGVVHRDLKP [I2K] | 1.22 |
| CHQQILEAVLHCHQMGVVHRDLKP [I2H] | 1.68 |
| CIQQINEAVLHCHQMGVVHRDLKP [L6N] | 1.98 |
| CIQQIQEAVLHCHQMGVVHRDLKP [L6Q] | 2.09 |
| CIQQIHEAVLHCHQMGVVHRDLKP [L6H] | 1.77 |
| CIQQIVEAVLHCHQMGVVHRDLKP [L6V] | 2.88 |
| CIQQILEAVRHCHQMGVVHRDLKP [L10R] | 2.37 |
| CIQQILEAVQHCHQMGVVHRDLKP [L10Q] | 2.19 |
| CIQQILEAVTHCHQMGVVHRDLKP [L10T] | 2.11 |
| CIQQILEAVWHCHQMGVVHRDLKP [L10W] | 4.24 |
| CIQQILEAVVHCHQMGVVHRDLKP [L10V] | 3.33 |
| CIQQILEAVMHCHQMGVVHRDLKP [L10M] | 3.74 |
| HIQQILEAVLHCHQMGVVHRDLKP [C1H] | 1.56 |
| QIQQILEAVLHCHQMGVVHRDLKP [C1Q] | 1.13 |
| CIQQILEAVLHCHQMGVVLRDLKP [H19L] | 1.9 |
| CIQQILEAVLHCHQMGVVIRDLKP [H19I] | 2.01 |
| CIQQILEAVLHCHQMGVVCRDLKP [H19C] | 1.84 |
| CIQQILEAVLHCHQMGVVERDLKP [H19E] | 3.29 |
| CIQQILEAVLHCCQMGVVHRDLKP [H13C] | 2.35 |
| CIQQILEAVLHCMQMGVVHRDLKP [H13M] | 2.07 |
| CIQQILEAVLHCEQMGVVHRDLKP [H13E] | 2.49 |
| CIQQILEAVLHCYQMGVVHRDLKP [H13Y] | 3.92 |
| CIPQILEAVLHCHQMGVVHRDLKP [Q3P] | 3.19 |
| CIKQILEAVLHCHQMGVVHRDLKP [Q3K] | 2.77 |

| Variant | protein stability index |
| --- | --- |
| CIIQILEAVLHCHQMGVVHRDLKP [Q3I] | 2.81 |
| CICQILEAVLHCHQMGVVHRDLKP [Q3C] | 3.04 |
| CIQQILEFVLHCHQMGVVHRDLKP [A8F] | 3.18 |
| CIQQILEWVLHCHQMGVVHRDLKP [A8W] | 4.4 |
| CIQQILEQVLHCHQMGVVHRDLKP [A8Q] | 2.42 |
| CIQQILEPVLHCHQMGVVHRDLKP [A8P] | 2.9 |
| CIQQILEAVLHCHQMGVVHIDLKP [R20I] | 1.85 |
| CIQQILEAVLHCHQMGVVHLDLKP [R20L] | 2.54 |
| CIQQILEAVLHCHQMGVVHEDLKP [R20E] | 3.3 |
| CIQQILEAVLHCHQMGVVHCDLKP [R20C] | 2.37 |
| CIQQILEACLHCHQMGVVHRDLKP [V9C] | 2.82 |
| CIQQILEAALHCHQMGVVHRDLKP [V9A] | 1.86 |
| CIQQILEAYLHCHQMGVVHRDLKP [V9Y] | 3.08 |
| CIQQILEAPLHCHQMGVVHRDLKP [V9P] | 1.26 |
| CIQQILEAKLHCHQMGVVHRDLKP [V9K] | 1.72 |
| CIQQILEAQLHCHQMGVVHRDLKP [V9Q] | 1.96 |
| CIQQILEAVLHCHQMGTVHRDLKP [V17T] | 3.89 |
| CIQQILEAVLHCHQMGHVHRDLKP [V17H] | 1.99 |
| CIQQILEAVLHRHQMGVVHRDLKP [C12R] | 4.86 |
| CIQQILEAVLHYHQMGVVHRDLKP [C12Y] | 3.8 |
| CIQQILEAVLHVHQMGVVHRDLKP [C12V] | 2.82 |
| CIQQILEAVLHAHQMGVVHRDLKP [C12A] | 2.34 |
| CIQQILEAVLHLHQMGVVHRDLKP [C12L] | 3.33 |
| CIQQILEAVLHCHQMGVVHRDLHP [K23H] | 3.03 |

| Variant | protein stability index |
| --- | --- |
| CIQQILEAVLHCHQMGVVHRDLPP [K23P] | 2.63 |
| CIQQILEAVLHCHQMGVVHRDLEP [K23E] | 2.61 |
| CIQQILEAVLHCHQMGVVHRDLVP [K23V] | 1.76 |
| CIQQILEAVLHCHQMGVVHRDLSP [K23S] | 1.65 |
| CIQQILEAVLHCHQMGVVHRDLNP [K23N] | 3.36 |
| CIQQILVAVLHCHQMGVVHRDLKP [E7V] | 1.8 |
| CIQQILMAVLHCHQMGVVHRDLKP [E7M] | 4.26 |
| CIQQILIAVLHCHQMGVVHRDLKP [E7I] | 2.74 |
| CIQQILWAVLHCHQMGVVHRDLKP [E7W] | 2.78 |
| CIQQILEAVLHCHLMGVVHRDLKP [Q14L] | 3.6 |
| CIQQILEAVLHCHKMGVVHRDLKP [Q14K] | 3.21 |
| CIQQILEAVLHCHDMGVVHRDLKP [Q14D] | 3.09 |
| CIQQILEAVLHCHSMGVVHRDLKP [Q14S] | 2.83 |
| CIQQILEAVLHCHHMGVVHRDLKP [Q14H] | 2.38 |
| CIQAILEAVLHCHQMGVVHRDLKP [Q4A] | 1.96 |
| CIQYILEAVLHCHQMGVVHRDLKP [Q4Y] | 2.07 |
| CIQRILEAVLHCHQMGVVHRDLKP [Q4R] | 2.94 |
| CIQLILEAVLHCHQMGVVHRDLKP [Q4L] | 2.55 |
| CIQHILEAVLHCHQMGVVHRDLKP [Q4H] | 2.13 |
| CIQKILEAVLHCHQMGVVHRDLKP [Q4K] | 1.93 |
| CIQDILEAVLHCHQMGVVHRDLKP [Q4D] | 2.04 |
| CIQQILEAVLQCHQMGVVHRDLKP [H11Q] | 1.9 |
| CIQQILEAVLCCHQMGVVHRDLKP [H11C] | 2.39 |
| CIQQILEAVLPCHQMGVVHRDLKP [H11P] | 1.69 |

| Variant | protein stability index |
| --- | --- |
| CIQQILEAVLHCHQMGVVHRHLKP [D21H] | 2.62 |
| CIQQILEAVLHCHQMGVVHRILKP [D21I] | 3.1 |
| CIQQILEAVLHCHQMGVVHRALKP [D21A] | 4.17 |
| CIQQILEAVLHCHQMGVVHRCLKP [D21C] | 2.86 |
| CIQQILEAVLHCHQMGVVHRQLKP [D21Q] | 2.22 |
| CIQQILEAVLHCHQMGVVHRMLKP [D21M] | 2.17 |
| CIQQILEAVLHCHQMGVVHRRLKP [D21R] | 2.75 |
| CIQQILEAVLHCHQMGVHHRDLKP [V18H] | 3.82 |
| CIQQILEAVLHCHQMGVYHRDLKP [V18Y] | 2.35 |
| CIQQILEAVLHCHQMGVAHRDLKP [V18A] | 2.83 |
| CIQQILEAVLHCHQMGVEHRDLKP [V18E] | 1.63 |
| CIQQALEAVLHCHQMGVVHRDLKP [I5A] | 4.67 |
| CIQQNLEAVLHCHQMGVVHRDLKP [I5N] | 1.71 |
| CIQQFLEAVLHCHQMGVVHRDLKP [I5F] | 2.79 |
| CIQQILEAVLHCHQMGVVHRDLKK [P24K] | 2.31 |
| CIQQILEAVLHCHQMGVVHRDLKQ [P24Q] | 1.86 |
| CIQQILEAVLHCHQMGVVHRDLKM [P24M] | 3.07 |
| CIQQILEAVLHCHQMGVVHRDLKS [P24S] | 2.12 |
| CIQQILEAVLHCHQMGVVHRDHKP [L22H] | 1.99 |
| CIQQILEAVLHCHQMGVVHRDYKP [L22Y] | 1.95 |
| CIQQILEAVLHCHQMGVVHRDNKP [L22N] | 2.03 |
| CIQQILEAVLHCHQMGVVHRDEKP [L22E] | 2.96 |
